This note sets out measurements from patent US20090029376.

Substitutions are numbered along the chain they refer to.

What all share (experiment): cleavage_in_vitro
Holding throughout (conditions): NEB4, 37 C

In data set [1] the target is T1, PstI-HF D91A (Providencia stuartii 164) (UniProt P00640).
T1 sequence: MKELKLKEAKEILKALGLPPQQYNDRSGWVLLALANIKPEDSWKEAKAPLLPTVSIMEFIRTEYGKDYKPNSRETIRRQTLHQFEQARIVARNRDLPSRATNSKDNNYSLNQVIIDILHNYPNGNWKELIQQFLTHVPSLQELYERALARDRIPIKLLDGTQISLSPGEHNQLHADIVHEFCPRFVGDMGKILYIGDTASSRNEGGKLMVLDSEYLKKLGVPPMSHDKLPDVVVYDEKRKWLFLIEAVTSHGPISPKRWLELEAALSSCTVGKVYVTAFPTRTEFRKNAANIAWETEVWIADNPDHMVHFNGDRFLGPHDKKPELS

Data set [2] has as its target T2, HindIII (Haemophilus influenzae Rd) (UniProt P43870).
T2 sequence: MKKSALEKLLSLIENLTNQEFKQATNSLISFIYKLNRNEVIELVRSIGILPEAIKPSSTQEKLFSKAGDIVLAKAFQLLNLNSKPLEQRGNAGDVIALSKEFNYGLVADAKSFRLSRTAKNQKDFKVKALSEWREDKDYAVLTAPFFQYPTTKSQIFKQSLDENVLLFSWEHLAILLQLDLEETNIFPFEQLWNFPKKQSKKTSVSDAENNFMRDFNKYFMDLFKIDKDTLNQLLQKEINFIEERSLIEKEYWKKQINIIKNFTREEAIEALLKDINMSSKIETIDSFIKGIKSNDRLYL

The target of data set [3] is EcoRI(K62A) K62A (Escherichia coli RY13) (UniProt P00642).
The subject of data set [4] is T3, NcoI-HF A2T/R31A (Nocardia corallina).
T3 sequence: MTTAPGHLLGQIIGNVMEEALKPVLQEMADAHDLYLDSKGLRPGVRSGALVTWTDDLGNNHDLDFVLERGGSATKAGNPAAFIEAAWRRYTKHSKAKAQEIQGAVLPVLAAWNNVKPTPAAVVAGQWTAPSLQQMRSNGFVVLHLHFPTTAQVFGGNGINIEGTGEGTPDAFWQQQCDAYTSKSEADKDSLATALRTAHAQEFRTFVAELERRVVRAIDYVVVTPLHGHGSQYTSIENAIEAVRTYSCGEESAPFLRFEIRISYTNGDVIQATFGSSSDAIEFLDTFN

The target in data set [5] is T4, BamHI (Bacillus amyloliquefaciens) (UniProt P23940).
T4 sequence: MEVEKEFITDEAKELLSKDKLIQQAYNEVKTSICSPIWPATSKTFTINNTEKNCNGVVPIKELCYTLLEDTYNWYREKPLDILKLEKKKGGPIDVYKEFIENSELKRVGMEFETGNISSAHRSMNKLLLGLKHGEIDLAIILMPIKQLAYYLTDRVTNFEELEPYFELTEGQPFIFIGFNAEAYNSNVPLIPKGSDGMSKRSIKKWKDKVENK

For data set [6], the system named is T5, SphI (Streptomyces phaeochromogenes).
T5 sequence: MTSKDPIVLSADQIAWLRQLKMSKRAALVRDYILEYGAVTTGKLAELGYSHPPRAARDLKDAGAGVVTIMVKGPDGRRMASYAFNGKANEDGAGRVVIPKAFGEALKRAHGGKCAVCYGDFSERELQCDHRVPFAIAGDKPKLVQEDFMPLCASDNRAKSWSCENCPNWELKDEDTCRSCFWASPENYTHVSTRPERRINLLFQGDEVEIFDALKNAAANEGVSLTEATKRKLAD

In data set [7] the target is T6, PstI (Providencia stuartii 164) (UniProt P00640).
T6 sequence: T1 sequence with A91D

Turning to lambda phage DNA, the activity (fidelity index) was over 2000 in data set [1]; 32 in data set [2]; 32000 in data set [3]; over 16000 in data set [4]; 4 in data set [5]; 16 in data set [6]. The substance further came in with an activity (fidelity index) in data set [7] of 8.
